From patent US20220195015A1 (published 2022)
Changes are numbered by the printed parent chain.

B1: C046 (antibody, V domains shown)
VH: EVQLVESGGGLAQPGRSLRLSCAASGFTFDDYAMHWVRQAPGKGLEWVSGINWNSGSLGYADSVKGRFTISRGIAKNSLYLQMNSLRPEDTAFYYCAKAGVRGIAAAGPDLNFDYWGQGTLVTVSS
VL: EIVLTQSPATLSLSPGERATLSCRASQSVSSYLAWYQQKPGQAPRLLIYDASNRATGIPARFIGSGSGTDFTLTISSLEPEDFAVYYCQQRITFGQGTRLEIK
B2: C047 (antibody, V domains shown)
VH: QVQLQESGPGLVKPSETLSLTCTVSGGSISSTTYYWDWIRQSPGKGLEWIGSIFYTGITYYSPSLKSRVTISVDTSKNQFSLRLNSMTAADTAVYYCARRLRQLWFGPWFDPWGQGTLVTVSS
VL: QSALTQPPSASGSPGQSVTISCTGTRSDVGDYNYVSWYQQHPDKAPKLIIYEVTKRPSGVPDRFSGSKSGNTASLTVSGLQAEDEADYYCSSYAGSNNVMFGGGTKLTVL
B3: C710 (antibody, V domains shown)
VH: B2 VH with T23I, S30N, S67T
VL: B2 VL with Y51F, N97S
B4: C048 (antibody, V domains shown)
VH: VQLQESGPGLVKPSETLSLTCAVSGGSVSSGNYYWNWIRQPPGKGLEWIGYIYYSGSTNYNPSLKSRVTISVDTSKNQFSLKLNSVTAADTAVYHCARETYYYDSSGYYISDAFDIWGQGTMVTVSS
VL: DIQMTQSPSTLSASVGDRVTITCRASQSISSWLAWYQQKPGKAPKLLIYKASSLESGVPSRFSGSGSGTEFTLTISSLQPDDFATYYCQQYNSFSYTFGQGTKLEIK
B5: C049 (antibody, V domains shown)
VH: QVQLQESGPGLVKPSETLSLTCTVSGGSVSSGTFYWSWIRQPPGKGLEWIGYIHYSGSTNYNPSLKSRVTISVDTSKNQFSLRLSSVTAADTAVYYCARESFYYDRSGYYGSDAFDIWGQGTMVTVSS
VL: DIQMTQSPSTLSSSVGDRVTITCRASQNISRWLAWYQQKPGKAPKLLIYKASTLESGVPSRFSGSGSGTKFTLTISSLQPDDFATYYCQQYNSYLYTFGQGTKLEIK
B6: C703 (antibody, V domains shown)
VH: EVQLLESGGGLVQPGGSLRLSCAGSGFTFSHYALSWVRQAPGKGLEWVSCISGTGGNSHYADSVKGRFTSSRDNSKNILYLQMNSLRAEDTAVYFCAKGGDFWSGYLIPFDSWGQGTLVTVSS
VL: SYELTQSPSVSVAPGKTARITCGGDSIGSKNVHWYQQKPGQAPVLVMYYDNDRPSGIPERFSGYNSGNTATLSISRVEAGDEADYYCLVWDGSGDPWVFGGGTKLTVL
B7: C704 (antibody, V domains shown)
VH: VQLVESGGGVVQPGRSLRLSCAASGFTFSRYGMHWVRQAPGKGLEWVAVSSYDGSNEYYANSVKGRFTISRDNSKNTLYLQMNSLRAEDTAVYYCAKTGASYCGGDCPFHFDYWGQGTLVTVSS
VL: IRMTQSPSSLSASVGDRVTITCQASQDINNYLNWYQQKPGKAPKLLIYDASDLETGVPSRFSGGGSGTDFTFTISSLQPEDIATYYCQHYNNLPITFGQGTRLEIK
B8: C706 (antibody, V domains shown)
VH: EVQLVESGGGLVKPGGSLRLSCAASGFTFSNVWMSWVRQAPGKGLEWVGRIKSKIDGGTTEYAAPVKGRFIISRDDSKNTLSLQMNSLKTEDTAVYYCTTDHGREPPVHWGQGTLVTVSS
VL: EIVLTQSPGTLSLSPGERASLSCRARQSVYSNYLAWYQHKSGQAPRLLFYGASSRATDIPDRFSASGSGTDFTLTISRLEPEDFAVYYCLQYGPSPTFGPGTRLEIK
B9: C707 (antibody, V domains shown)
VH: EVQLVESGGGLVKPGGSLRLSCAASGFTFSSYSMNWVRQAPGKGLAWVSSISSSNNIIYYADSVKGRFTISRDDAKDSLYLHMKSLRADDTAVYFCARVPSWAPYQLLPGPFDYWGQGILVTVSS
VL: IRMTQSPSSLSASVGDRVTITCQASQAIASYLSWYQHKPGRAPKLLIYDASNLEIGVPSRFSGSGSGTDFTFTISSLQSEDNATYYCQQYESLPGTFGGGTKVEIK
B10: C708 (antibody, V domains shown)
VH: EVQLVESGGGLVQPGGSLRLSCAASGFSFSTYWMSWVRQAPGKGLEWVADIKQDGSEKYFVDSVKGRFTISRDNAKNSLYLHLNSLRAEDTAVYYCAREMAGSGNYYWFGYGMDVWGQGTTVTVSS
VL: IRMTQSPSSVSASVGDRVTITCRASQGISSWLAWYQQKPGKAPKLLIYAASSLQSGVPSRFSGSESGTDFTLTISSLQPEDFATYYCQQANSFPLTFGGGTKVEIK
B11: C709 (antibody, V domains shown)
VH: QVQLVQSGAEVRKPGASVKVSCMASGYTFNTYDINWVRQGTGQGLEWMGWMNPNSGNTGHAQKFQGRVAMTVNTSMNTAYMELSSLRSEDTAVYYCARGADMLNVAVGADFDYWGQGTLVTVSS
VL: QSALTQPPSASGSPGQSVTISCTGTSSDVGGYNFVSWFQQHPGKAPKLMIYEVSKRPSGVPDRFSGSKSANTASLTVSGLQAEDEADYFCSSYAGSNNWVFGGGTKLTVL
B12: C565 (antibody, V domains shown)
VH: EVQLVESGGGLIQPGGSLRLSCAASGLIVSSNYMNWVRQAPGKGLEWVSLLYSGGSTYYADSVKGRFTISRDNSKNTLYLQMNSLRPEDTAVYYCARDLSVVGAFDIWGQGTMVTVSS
VL: EIVLTQSPGTLSLSPGERATLSCRASQSLPSTYLAWYQQKRGQAPRLLIYGASSRATGIPDRFSGSGSGTDFTLTISRLEPEDFAVYYCQQYGTSPRVTFGPGTKVDIK
B13: C566 (antibody, V domains shown)
VH: QVQLQESGPGLVKSSQTLSLNCSVFGASISSGGYYWTWIRQHPGKGLEWIGYIHYRGTYYNPSLKSRVTMSVDTSKNQFSLKVRSVSAADTAIYYCARAIVVVTLNWFDLWGQGTLVTVSS
VL: NFMLTQPHSVSESPGKTVTISCSGSGGSIASNYVQWYQQRPGSAPTAVIYEDNQRPSGVPDRFSGSIDSSSNSASLTISGLKTEDEADYYCQSYDTSNPVIFGGGTKLTV
B14: C567 (antibody, V domains shown)
VH: QVQLQESGPGLVKPSETLSLTCTVSGGSVINGSYYWSWIRQPPGKGLEWIGFVYYSGSTNYNPSLKSRVTISVDTSKNQFSLNLNSVTAADTAVYYCATGSKSSYYFDYWGQGTLVTVSS
VL: QSVLTQPPSVSAAPGQKVTISCSGSSSNIGNNYVSWYQQLPGAAPKLLIYENNMRPSGIPDRFSGSKSGTSATLGITGLQTGDEADYYCGTWDSSLSVPYVFGTGTRVTVL
B15: C525 (antibody, V domains shown)
VH: EVQLVESGGRLVQPGRSLRLSCAASGFTFDDYAIHWVRQAPGKGLEWVSGISWNSGSIGYADSVRGRFTISRDNAKNSLYLQMNSLRAEDTALYYCAKGLDSSSSASPDYWGQGTLVTVSS
VL: DIQMTQSPSSVSASVGDRVTITCRASQDISSWLAWYQQKPGKAPKLLIYLASSLQSGVPSRFSGSGSGTDFILTISSLQPEDFGTYYCQQGNSFPLTFGGGTKVEIK
B16: C526 (antibody, V domains shown)
VH: QVQLVQSGAEVKKPGASVKVSCKASGHTFTTYYLHWVRQAPGQGLEWMGRIDPSGGSTTYAQKFQGRVTMTRDTSTSTVYMELSSLRSEDTALYYCARGGYCGSTSCSPDDYFDYWGQGTLVTVSS
VL: SYELTQPPSVSVAPGKTARITCGGNNIGSKSVHWYQQKPGQAPVLVIYYDSDRPSGIPERFSGSNSGNTATLTISRVEAGDEADYYCQVWDSSSDHYYVFGTGTKVTVL
B17: C527 (antibody, V domains shown)
VH: QVQLVESGGGVVQPGRSLRLSCAASGFTFSSYGMHWVRQAPGKGLEWVALIGYDGTDKYYAENVKGRFTISRDNSKNTLFLQMNSLRGGDTAVYLCARDGIPFRYGMDVWGQGTTVTVSS
VL: DIQMTQSPSTLSASVGDRVTITCRASQSIDIWLAWYQQKPGKAPKFLIHKASTLESGVPSRFSGSGSGTEFTLTISSLQPDDFATYYCQHYHSYSGTFGQGTKVEIK
B18: C528 (antibody, V domains shown)
VH: EVQLVESGGGLVQPGGSLRLSCAASGFTFRNYDMHWVRQVAGKGLEWVSAIGTSGDTYYPDSVKGRFTISRENAKNSVYLQMNNLRAGDTAVYFCVRDREISGWTGWYFDLWGRGTLVTVSS
VL: DIQMTQSPSSLSASVGDRVTITCRASQTIHNYLNWYQQIPGKAPRLLIYATNTLQSGVPSRFSGSGSGTDFTLTITGLQPEDFATYYCQQSYSTPPITFGQGTRLEIK
B19: C529 (antibody, V domains shown)
VH: EVQLLESGGGLVQPGGSLRLSCAASGFTFNNYAMNWVRQAPGRGLEWVSGISGSGANTYYADSVKGRFTISRDNPKNTLSLQMNSLRAEDTALYYCAKVLSPTYYDSWSGPDAFDFWGQGTMVTVSS
VL: DIQMTQSPSTLSASVGDRVTITCRASQTISPWLAWYQQKPGKAPNLLIYKASSLESGVPSRFSGSGSGTEFTLTISSLQPDDFATYYCQQYNSYSSWTFGQGTKVEIK
B20: C530 (antibody, V domains shown)
VH: QVQLVESGGGVAQPGRSLRLSCAASGFTFSRYGMHWVRQAPGKGLEWVAVIWHDGSDKYCADFVKGRFTISRDNSKNTLYMQMDSLRAEDTAVYYCARGGRPDHETGIAVLGEYYFDSWGQGTLVTVSS
VL: SYELTQPPSVSVSPGQTARITCSGDAFPLQYGYWYQQKPGQAPVLVIYKDKERPSGISERFSGSSSGTTVTLTISGVQAEDEADYYCQSADTNGVVFGGGTSLTVL
B21: C531 (antibody, V domains shown)
VH: EVQLVESGGGLVQPGRSLRLSCVATGFTFDDFAMHWVRQAPGKGLEWVSGISWNGGIIGYVDSVKGRFTISRDNAKNSLYLQMNSLRPEDTALYYCVKGYRYYYDILTGYYNDAGAFDYWGQGTLVTVSS
VL: DIQSTQSPSFLSASVGDRVAITCRASQGISSYLAWYQQKPGKAPKLLIYPASTLQSGVPSGFSGSGSGTEFTLTISSLQPEDFATYYCQQLNDYPFTFGPGTKVDIK
B22: C532 (antibody, V domains shown)
VH: EVQLVQSGAEVKKPGESLKISCKGSGYRFTNYWIGWVRQMPGKGLEWIGNIFPGDSDSRYSPSFQGQVTISVDMSITTAYLHWSSLKASDTAIYYCARLSERWYSPFDSWGQGTLVTVSS
VL: EIVMTQSPATLSVSPGERATLSCRASQSVSSNLAWYQQKPGQAPRLLIYGASTRATGFPARFSGSGSGTEFTLTISSLQSEDFAVYFCQQYNNWPPGGFTFGPGTKVDIK

How the values were obtained:
[1] = target: SARS-CoV-2 spike protein receptor binding domain (RBD) (SARS-CoV-2, UniProt P0DTC2 319-539); assay: ELISA on plate-coated RBD
[2] = target: SARS-CoV-2 spike protein receptor binding domain (RBD), wild type (SARS-CoV-2, UniProt P0DTC2 319-539); assay: ELISA, RBD protein coated on plate, antibody titrated

Binder	EC50 [1]	EC50 [2]
B1	0.00402 µg/mL	–
B2	0.0111 µg/mL	–
B3	0.0178 µg/mL	–
B4	0.0048 µg/mL	–
B5	0.00409 µg/mL	–
B6	0.0109 µg/mL	–
B7	0.0134 µg/mL	–
B8	0.0735 µg/mL	–
B9	0.026 µg/mL	–
B10	0.13 µg/mL	–
B11	0.00756 µg/mL	–
B12	0.00127 µg/mL	–
B13	0.00588 µg/mL	–
B14	0.0189 µg/mL	–
B15	–	0.0106 µg/mL
B16	–	0.0182 µg/mL
B17	–	0.0134 µg/mL
B18	–	0.00566 µg/mL
B19	–	0.008 µg/mL
B20	–	0.0105 µg/mL
B21	–	0.00684 µg/mL
B22	–	0.001 µg/mL
